Results taken from the DeepSol protein solubility set.

test: soluble on expression in E. coli; label from the status in PepcDB or PDB records

Soluble on expression in E. coli, not soluble:
LFSYKSTMWQFINKVTSDRINILNQYYEKFGIHILPQQVTNYRSAGIIVMDNIYVT, MGSDKIHHHHHHMIRSLWIAKTGLDAQQMQMDVIANNLANVSTNGFKKTRAVFEDLLYQNIRQPGAQSSQQTQLPSGLQLGTGVRPVATERIHIQGNLQQTGNNKDVAISGEGFFQVLLPDGSTAYTRDGAFQLDNQGQLVTASGFTVQPAIIVPPNALSLTVGRDGTVSVVLPDNPNNAVQIGTFQLATFINPAGLQSRGENLYIETAASGPANINQPGLNGTGLLVHQYLETSNVNVAEELVSMIQTQRAYEINSKAISTSDQMLQRLSQL, NGFDVREGRKLLVGGGSGIVSLYPIADQETDALISAKTRDELIFKDRFPESRRFIATDDGSDGFHGFAHELLQRINIDSYEAIYVCGPEQMMYKVLQVLKGRKVFVQFS, MRDMIHNISYRLMVYGTEDEEKVIEALRNVIPGATPERESAEGYHGNPITVLRGRLDRRRALREFMEKFTEVFRGRMDELEDRFDENGNLFLRLDKQKALEGVWEPVRHGDAIHLKIKVEAYPAKREVAVENIRKILE, MGSDKIHHHHHHMLIKLNDYEKNITQKIKDLKNASGSHSPSIFTMAEQIPELNIKIDSCFLSNPYATALFLRYLKEELIDGQKLRSVLEFYPSQNSIIAKTVADFIGIDPKNVFIGNGAIEIIQAVMHNFVGKKIIVNIPTFSSYYEFAKSETNVVYYQLSKEDNYNLNIEHYLNFVKNENPDSVVLINPNNPDGGYINYEKLRYILSELKYVKNIIIDESFIHFAYENKDYNGINIEYLFKEFHNTIIIKSMSKDFGVAGIRIGYAIMSEDKIRGLLKNGYLWNSSGLSEYFLRLYVRKNFFDEYDKVRREYIQETQTFFRKLSGIKQFKVYPSMANFALVELLDGSSSTDFVAKMLIKYGIYMRTCNDKIGLEGEFIRIASRTLEENDMVLKSICDVFKE, MKQTPPLISFITICYNGLDDTCMLIESLRDTISSVSYEIIVVDNASRQDEASLIQERYPFVRTLRSEKNLGFSGGNNLGIQIAQGKYLFLINNDTYLTEDGLPALIERLESDPRIGAVSPKIRFAFPPQSIQFAGYTKLSRYTMRNKALGMGCPDDGTFDTPRPSAYLHGAALMLKREVIWKAGLMPEIYFLYYEELDWCTSMTRAGYQLWYEPRCTIFHKESQSTGRQSPLRTFYMMRNRMLYAWRNLPGMERCLAIAYQMLIVAPKDSLCFVLKGEPKLAKAVWHGVKGFWKLC, MGSDKIHHHHHHMVGMLERTIAGLQRNNMAGYFVHNRQELMALLSGLMEKGQTVGCGDSVTLEELGVFDFLRKGDYIFYDKYVPGLTSEDKRRLYIQNFAADTFITGTNAVTTDGKLFNIDGNGSRVAPMIYGPRQVIVVVGTNKITEDVESAIQRVRQIAAPMDAKRLKKETPCTKLNRCVDCRHPQRICNDFVLITGQFVKDRIKVIIIDMEIGY, MGSDKIHHHHHHMSNRQEQPHFNDWFQARGITEVECLVTDLTGILKGKIMPAGKYLGGGRPRLPDSIFIQTVTGGYPDDDDIHFWNPAERDMELVPDPNAVFLVPWADDPTAQIIHDCHYLTGEPVELAPRHVLKRVLACYQARGWKPVVAPEVEFFLVKTNTDSDYPLEPPIGRNGRQESSRQSFSIDAVNEFDPLFEEMYDYCDAMSLDLDTLIHEEGAGQMEVNFQHGDPLHLADQVVMFKRALRETALRHGMYATFMAKPMANEPGSSMHLHQSLLDAQSGDNLFASDNGQSSRLFQHFIGGLQRYLPASMPLLAPNVNSYRRLMRTETSGSAPINVEWGTDNRTVGLRVPVSTPEATRVENRLAGADANPYLVMAASLACGYLGMLGQLEPRPPMVGSAWSGGHKLPDDIRPALDMLSECQPLAEILGERFTNSYLAVKRAEHREYFQVISSWEREHLLLRV, MRKTWLSLLLLFILALSACGNAADDQKNNSASPKEKKPETITYQSENGPVEVPADPKRVVVLSTFAGHVLALDVPIVGVDSWSKMSPLFQEKLKDAEVVTDEDIEKIMALKPDLIIGLSNTKKVDKLSKIAPTVTFTYGKVDYLTQFLEIGKLLNKEKEAKAWIDDFKQRAQQAGEEIRAKIGENATVTVAENFDKQLYVFGNNWARGTEILYQEMKLKMPKAVEEQALKPGYYAVSLEALPQFVGDYLILSKNGDGDTSFMETNTFKNIPAVKNGHMFVADAKAFYFNDPITLDYQLDFFKKHFLGQ, NTKDEAYNVATQATYAVAEQQTGSGDVVAVDDNVQMSKVSTVTINVLGNDIIADGVSVEISAMSAPSKGTVKLLSDGSIQYTPAKRFKNQDSFS, MLIHMKSRKMNLNKLEDGGSWFSRLKQFLQGEPQNQEELVSLLRDAQIRSLINSETLAMIEGAILFSKMRVRDIMLPKNQMVCINKDDDFKHIISIVTQTGHSRFPVTGENSDEVVGILHAKDLLKYQPENMESFDLLDICRQVTFVPESRRLDSLLSEFRSNRNHMAIVVDEYGEVSGFVTIEDIIEQIIGDIEDEFDIDEDAYIKTHEGHCYIIKAHTPIEEFNEQLNADFSDETYDTIGGIVLNKFGYLPQRGEVIIIDDFEFKVLNADSRRIKLLECLDKRSPEKLNSTVEG, MGDIEDAPRIISGIGELDRATGGGFVRGSALLVGGDPGIGKSTLLTQAAAALASRGHRIVYVSGEEAVAQIRLRAQRLGVADSPVELAAETNVEDILATIADGKRPDLVILDSIQTLWTDLADSAPGTVTQVRAAAQAMIRYAKSTGAAIVLVGHVTKEGQIAGPRVVEHMVDGVLYFEGEGGHHYRILRTVKNRFGLEHHHHHH, MNIAIIGGGIAGLATAHLLCDDHRVTLFEANDYLGGHTNTVDVSLDGTTLAVDTGFIVFNERTYPNFIRLLERLNVASRPSVMSFSVTSERNGLEYCATNLDTLFAQRRNFLNRPFWRMLREIVRFNREARELYDSHEMTLTLGDYLKNRGYSVTFVENFLVPMGAAIWSADPKRFAMFPAAAFVRFFTNHGILNVVDQPRWRVVAGGSREYVAPLARPFRDRVRLSTPVDRVRRFPDRVAVTTRGGETEYFDQVVLACHSDQALAMLTDPSDAERELLSAIPYQENDTVLHTDSRLLPGLPKARASWNCRIPRHERDGVFVTYWMNRLQSLATSTDFCVTLNGTEAIAPERIIRRITYHHPVYSPAAFEAQKRRDEISGTNRTWYCGAYWGYGFHEDGLNSALAVCRRFGRGLLEHHHHHH, MGSDKIHHHHHHAQTEVLTGVTRGKDYGVVYALPKTQIEIEIKANKVNYKPGEFSKYADRYLRLTNVSAEPEEYWELNSVKVKPVGVPNSEATYFVKLKDKTVAPLMELTEEGLIKSINVPYSSNNAKNAANNAVAPQRKANPRDFLTEEILMASSTAKMAELVAKEIYNIRESKNALLRGQADNMPSDGAQLKIMLDNLNLQEEAMTEMFSGVRNKEEKTFTVRLTPDKEFDNEVAFRFSKKLGIVANNDLAGTPFYISLKDLKTVKIPQEDGKKKKEMEGIAYNVPGQAMVTLTDGKKKLYEGEIPVTQFGIIEYLAPVLFNKNSTIKVYFDPVTGGLLKVDREESK, MGSDKIHHHHHHMCGHAKGGLTVLVSSRACPPQVQHRYLKTVLYLDCPQEVGDQSSPWWLLNIGYWLYGSACMLCKAAFGIELATEPQMEFSAHKGTTSISLVRDALQGAELRGLDVATVLSHAHIDPRLLDQRYARVPAGTFSRLWIALADLLDDEFFAADSHPLRRGSFKLMAQLALGCDTIGQALKRILAFLRTALDDIYGSVECEGEHAAIIIHDHGELRRVFCYGAWLVLVHGLLCWLCDRRIPIVKLSMRPPQPVDDSDYRMRFCEEIEWRADRTSAVFEKSFLAYKVCQTPVSLPAFLKGTPSNFLVKYRNDDSTSIMIRRRLKLLSPHTWPELDELARDLSMSSSTLQRRLYAEGFTYQRLKDNLRRDISISLLCRAGMTVDGVASEVGFIETSAFHRAFKKWTGITPGAYRRSLLSPRGD, MGSDKIHHHHHHMKKVIPALALVLLTTGLVGCDRVEPGNVGIKVNKLGDDKGVGEVVGVGRYWTGWNTEVYIFPTFKQMKTYDEPFSFQMSDGTTIGYHIGVAYKVDPSKVTTVFQTYRKGVDDITDTDLRQKIADALNRLASKMTTDKFIDGGKSELLDAALKDIQEEMTPIGIQVMSLSYVGKPEYPPTVIDSINAKVTANQKTLQCEQEVKQREAEANMLRAEAAGQADAIRTKAQAEADAIRLRGEALRQNPNVMELEAINKWNGTLPQYMTSGANTPFIQVK

Soluble on expression in E. coli, soluble:
MAHHHHHHMGTLEAQTQGPGSMNVLVIGSGGREHSMLHHIRKSTLLNKLFIAPGREGMSGLADIIDIDINSTIEVIQVCKKEKIELVVIGPETPLMNGLSDALTEEGILVFGPSKAAARLESSKGFTKELCMRYGIPTAKYGYFVDTNSAYKFIDKHKLPLVVKADGLAQGKGTVICHTHEEAYNAVDAMLVHHKFGEAGCAIIIEEFLEGKEISFFTLVDGSNPVILGVAQDYKTIGDNNKGPNTGGMGSYSKPNIITQEMEHIIIQKIIYPTIKAMFNMNIQFRGLLFAGIIIKKNEPKLLEYNVRFGDPETQSILPRLNSDFLKLLSLTAKGKLGNESVELSKKAALCVVVASRGYPGEYKKNSIINGIENIEKLPNVQLLHAGTRREGNNWVSDSGRVINVVAQGENLASAKHQAYAALDLLDWPDGIYRYDIGSCAL, EDKTITTLYVGGLGDTITETDLRNHFYQFGEIRTITVVQRQQCAFIQFATRQAAEVAAEKSFNKLIVNGRRLNVKWGR, MPAGFTHFRLVTRNNMKSLTTETALDILIAWLQDNIDCGSGIIFDNDEDKTDSAALLPCIEQAREDVRTLRHLQLLHQNR, MSLSVVERIFNHSESRPDCIAVYENDRTISYENLASDIKKTAAKLVSLGVTSEDAVLVRSNNSYSFILLYFSIHYVGAKFVNVAPDSDVSYVSFIEDKVNPKLFIEKSQDFIRNIDSYTFDNIFPPQARGIADIMFTSGTTGEPKGVLLSHKSLVLATEHIISHVKNTNEDVELLLMPLSHSFAMARMRTSLFAGGAIVVGCSFKQLKSVFKAIEFYKVTGLGLVPSAWSYITLMTKDLIRKYSEQLNFIEFGSAHFPFEDKKQVAEWFPNTNVVMHYGLTEVSRATFIDFHNDDINAVGHRYRGADFKIIDNKGAEVIEGEEGEIVFKAPWMLDGYFENSQLTSDCFVEGYFKTGDLGRVVGDYLFLTGRLKEIINVGGKKVSPDQVEKVLSEALGVQECACAALSDANMGEVVQAYIVVKSGWDCENVISNIKETINGQLPMHMRPKKYSIVSALPKTVSGKVQRYKLSSEGHHHHHH, MTTDQSKLEAINQALRAQRQLVRQLDDQQASLERQLQGLTGDSAGWAADTDPALGHVLEAFHALLGSLTESLSQGDAAQLLARCAAELLPDTTGAIFVDQAGVEPANRAIAAWRGAELLTDPNALHYECTEDQAAHRLNIEAQGLYLGVVELRPLSPGRALRAREQQTLQMLASAAGLALATHTLRYRLRHRNVRDPLTGLFNRRYAEDTLERELHRAQRHQLPLSVVLIDLDRFEAYNQRHGQNAGDRMLQAMSDLLQHSFRGSDICARAAGQRFLLVLPEAAIRDAIERANDLRRELAKVRVHLRGLHLPAMTVSMGVAGYPEHADSSDDLMAAADAALQLAKHSGGNTCALAEKVPLSPHNE, LSITTPEQRIEKAKGETAYLPCKFTLSPEDQGPLDIEWLISPSDNQIVDQVIILYSGDKIYDNYYPDLKGRVHFTSNDVKSGDASINVTNLQLSDIGTYQCKVKKAPGVANKKFLLTVLVKPSGTRCFVDGSEEIGNDFKLKCEPKEGSLPLQFEWQKLSDSQTMPTPWLAEMTSPVISVKNASSEYSGTYSCTVQNRVGSDQCMLRLDVVPPS
